How the values were obtained:
gp140 SHIV SF162P3 = biological target: T1, gp140 SHIV SF162P3 (SHIV SF162P3); assay: ELISA, gp140 coated
T1 construct: domain: gp140; also called SHIV gp140
Experimental: (§1) The in vitro binding characteristics of antibodies for both the antigen (HIV gp120) and Fc binding receptors (FcγRs, FcRn) were determined using an Enzyme-Linked Immunosorbant Assay (ELISA).

gp140 BaL = biological target: T2, gp140 BaL (HIV-1 strain BaL); assay: ELISA, gp140 coated
T2 construct: domain: gp140
Experimental: as §1

human FcγRIIIA [1] = biological target: T3, human FcγRIIIA (human, UniProt P08637 17-254); assay: cell-based or functional assay
human FcγRIIIA [2] = biological target: T3, human FcγRIIIA; assay: cell-based or functional assay; remark: listed apart in the source
[3] = biological target: HIV-1 92US727 Env (on virus) (HIV-1 isolate 92US727); assay: cell-based or functional assay
HIV-1 BaL Env (on virus) = HIV-1 BaL Env (on virus) (HIV-1 strain BaL); assay: cell-based or functional assay
[4] = biological target: HIV-1 92US657 Env (on virus) (HIV-1 isolate 92US657); assay: cell-based or functional assay
[5] = biological target: HIV-1 92US712 Env (on virus) (HIV-1 isolate 92US712); assay: cell-based or functional assay
[6] = biological target: HIV-1 93HT593 Env (on virus) (HIV-1 isolate 93HT593); assay: cell-based or functional assay
human FcγRIIIA [7] = biological target: T3, human FcγRIIIA; assay: cell-based or functional assay; remark: listed apart in the source

T3 sequence (P08637 17-254): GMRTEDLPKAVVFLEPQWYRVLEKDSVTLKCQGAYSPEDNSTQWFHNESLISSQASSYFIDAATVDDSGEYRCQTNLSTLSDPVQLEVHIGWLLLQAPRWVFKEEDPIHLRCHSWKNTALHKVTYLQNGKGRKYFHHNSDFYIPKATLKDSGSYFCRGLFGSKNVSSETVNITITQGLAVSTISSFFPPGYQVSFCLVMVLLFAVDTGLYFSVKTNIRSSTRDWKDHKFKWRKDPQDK

B1: PGT121.42 hIgG1/hLambda (antibody)
heavy: QMQLQESGPGLVKPSETLSLTCSVSGASISDSYWSWIRRSPGKGLEWIGYVHKSGDTNYNPSLKSRVHLSLDTSKNQVSLSLSSVTAADSGKYYCARTLHGRRIYGIVAFNEWFTYFYMDVWGKGTQVTVSSASTKGPSVFPLAPSSKSTSGGTAALGCLVKDYFPEPVTVSWNSGALTSGVHTFPAVLQSSGLYSLSSVVTVPSSSLGTQTYICNVNHKPSNTKVDKKVEPKSCDKTHTCPPCPAPELLAGPDVFLFPPKPKDTLMISRTPEVTCVVVDVSHEDPEVKFNWYVDGVEVHNAKTKPREEQYNSTYRVVSVLTVLHQDWLNGKEYKCKVSNKALPLPEEKTISKAKGQPREPQVYTLPPSREEMTKNQVSLTCLVKGFYPSDIAVEWESNGQPENNYKTTPPVLDSDGSFFLYSKLTVDKSRWQQGNVFSCSVLHEALHSHYTQKSLSLSPGK
light: not shown
notes: also called PTG121.42
B1 was tested, and the EC50 (gp140 SHIV SF162P3) was 0.45 nM, the EC50 (gp140 BaL) was 0.52 nM and the “NK ADCC EC50, US657-infected CD4+ T cells, donor A4588” value (human FcγRIIIA [1]) was 4.3 nM. The “NK ADCC EC50, US657-infected CD4+ T cells, donor A4589” value (human FcγRIIIA [1]) was 1.5 nM, the “NK ADCC EC50, US657-infected CD4+ T cells, donor A4595” value (human FcγRIIIA [1]) was 0.57 nM and the “NK ADCC EC50, US657-infected CD4+ T cells, donor A4813” value (human FcγRIIIA [1]) was 1.4 nM. The “NK ADCC EC50, US657-infected CD4+ T cells, donor A4838” value (human FcγRIIIA [1]) was 0.94 nM, the “NK ADCC EC50, US657-infected CD4+ T cells, donor A4839” value (human FcγRIIIA [1]) was 0.54 nM and the “NK ADCC EC50, US657-infected CD4+ T cells, geomean of donors” value (human FcγRIIIA [1]) was 1.2 nM. The “NK ADCC EC50, BaL-infected CD4+ T cells, donor A4590” value (human FcγRIIIA [2]) was 1.2 nM, the “NK ADCC EC50, BaL-infected CD4+ T cells, donor A4591” value (human FcγRIIIA [2]) was 0.02 nM and the “NK ADCC EC50, BaL-infected CD4+ T cells, donor A4813” value (human FcγRIIIA [2]) was 4.4 nM. The “NK ADCC EC50, BaL-infected CD4+ T cells, donor A4838” value (human FcγRIIIA [2]) was 0.5 nM, the “NK ADCC EC50, BaL-infected CD4+ T cells, donor A4839” value (human FcγRIIIA [2]) was 3.9 nM and the “NK ADCC EC50, BaL-infected CD4+ T cells, geomean of donors” value (human FcγRIIIA [2]) was 0.7 nM. The “neutralization IC50, HIV-1 US727, CEM.NKr.CCR5.Luc assay” value [3] was 0.015 µg/mL, the “neutralization IC50, HIV-1 BaL, CEM.NKr.CCR5.Luc assay” value (HIV-1 BaL Env (on virus)) was 0.015 µg/mL and the “neutralization IC50, HIV-1 US657, CEM.NKr.CCR5.Luc assay” value [4] was 0.096 µg/mL. The “neutralization IC50, HIV-1 US712, CEM.NKr.CCR5.Luc assay” value [5] was 0.02 µg/mL, the “neutralization IC50, HIV-1 HT593, CEM.NKr.CCR5.Luc assay” value [6] was 0.155 µg/mL and the “NK ADCC EC50, HT593-infected CD4+ T cells, donor 1” value (human FcγRIIIA [7]) was 0.024 nM. The “NK ADCC EC50, HT593-infected CD4+ T cells, donor A4588” value (human FcγRIIIA [7]) was 0.176 nM, the “NK ADCC EC50, HT593-infected CD4+ T cells, donor A4589” value (human FcγRIIIA [7]) was 0.18 nM and the “NK ADCC EC50, HT593-infected CD4+ T cells, donor A4813” value (human FcγRIIIA [7]) was 4.9 nM. The “NK ADCC EC50, HT593-infected CD4+ T cells, donor A4838” value (human FcγRIIIA [7]) was 0.62 nM, the “NK ADCC EC50, HT593-infected CD4+ T cells, donor A4839” value (human FcγRIIIA [7]) was 5.2 nM and the “NK ADCC EC50, HT593-infected CD4+ T cells, donor X” value (human FcγRIIIA [7]) was 0.014 nM. For the same binder, the “NK ADCC EC50, HT593-infected CD4+ T cells, geomean of donors” value (human FcγRIIIA [7]) was 0.3 nM.

B2: PGT121.56 hIgG1/hLambda (antibody)
heavy: QMQLQESGPGLVKPSETLSLTCSVSGASISDSYWSWIRRSPGKGLEWIGYVHKSGDTNYSPSLKSRVNLSLDTSKNQVSLSLVAATAADSGKYYCARTLHGRRIYGIVAFNEWFTYFYMDVWGNGTQVTVSSASTKGPSVFPLAPSSKSTSGGTAALGCLVKDYFPEPVTVSWNSGALTSGVHTFPAVLQSSGLYSLSSVVTVPSSSLGTQTYICNVNHKPSNTKVDKKVEPKSCDKTHTCPPCPAPELLAGPDVFLFPPKPKDTLMISRTPEVTCVVVDVSHEDPEVKFNWYVDGVEVHNAKTKPREEQYNSTYRVVSVLTVLHQDWLNGKEYKCKVSNKALPLPEEKTISKAKGQPREPQVYTLPPSREEMTKNQVSLTCLVKGFYPSDIAVEWESNGQPENNYKTTPPVLDSDGSFFLYSKLTVDKSRWQQGNVFSCSVLHEALHSHYTQKSLSLSPGK
light: not shown
B2 was tested, and the EC50 (gp140 SHIV SF162P3) was 0.48 nM, the EC50 (gp140 BaL) was 0.59 nM and the “neutralization IC50, HIV-1 US727, CEM.NKr.CCR5.Luc assay” value [3] was 0.011 µg/mL. For the same binder, the “neutralization IC50, HIV-1 BaL, CEM.NKr.CCR5.Luc assay” value (HIV-1 BaL Env (on virus)) was 0.02 µg/mL, the “neutralization IC50, HIV-1 US657, CEM.NKr.CCR5.Luc assay” value [4] was 0.142 µg/mL and the “neutralization IC50, HIV-1 US712, CEM.NKr.CCR5.Luc assay” value [5] was 0.019 µg/mL. The “neutralization IC50, HIV-1 HT593, CEM.NKr.CCR5.Luc assay” value [6] was 0.164 µg/mL.
